According to patent US20230220021A1, “CYCLIC PEPTIDE INHIBITORS OF PSD-95 AND USES THEREOF” (University of Copenhagen, priority 2020, published 2023):
[ ]: non-standard residue; d: D form.

Target: (7× His)-PSD-95-PDZ2 wild type (UniProt P78352)
Assay: FP competition

(7× His)-PSD-95-PDZ2 wild type, sequence (P78352 160-246): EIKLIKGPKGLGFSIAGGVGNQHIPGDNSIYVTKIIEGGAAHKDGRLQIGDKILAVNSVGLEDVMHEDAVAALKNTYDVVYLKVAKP

B1: cyclic nNOS β-hairpin peptide T116M (peptide)
peptide: cyclo(THLETTFTGDGMPKTIRVTQ[dP]GQ)
modifications: ring closure inferred; not fully specified
Ki: 3.76 µM
Relative Ki (Ki mut/Ki WT): 2.51
